Holding throughout (experiment): SPR, antibody immobilized, monomeric FcγR injected, steady state, pH 7.4; SPR, monomeric FcγR
The target of experiment [1] is Human FcγRIIIb (CD16b) (human) (UniProt O75015).
The target of experiment [2] is Human FcγRI (CD64) (human) (UniProt P12314).
The target in experiment [3] is Human FcγRIIIa (CD16a) (human) (UniProt P08637).

Data on 1 molecule can be found in patent US20150299305A1.

What is called Kd is the constant that tells how readily two partners part at equilibrium.

Human FcγRIIIb (CD16b) (human), sequence (O75015 17-200 limits assumed): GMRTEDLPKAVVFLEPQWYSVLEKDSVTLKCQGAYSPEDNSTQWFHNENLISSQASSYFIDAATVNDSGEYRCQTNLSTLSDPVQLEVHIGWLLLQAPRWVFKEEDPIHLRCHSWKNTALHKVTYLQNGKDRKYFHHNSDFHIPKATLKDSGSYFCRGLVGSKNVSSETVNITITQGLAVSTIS
Human FcγRIIIa (CD16a) (human), sequence (P08637 17-208 limits assumed): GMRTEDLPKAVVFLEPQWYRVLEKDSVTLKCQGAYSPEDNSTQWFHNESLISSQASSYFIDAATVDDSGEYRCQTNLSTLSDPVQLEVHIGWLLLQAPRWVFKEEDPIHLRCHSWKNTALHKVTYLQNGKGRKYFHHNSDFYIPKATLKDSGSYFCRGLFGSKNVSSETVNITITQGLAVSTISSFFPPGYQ
Human FcγRI (CD64) (human), sequence (P12314 16-288 limits assumed): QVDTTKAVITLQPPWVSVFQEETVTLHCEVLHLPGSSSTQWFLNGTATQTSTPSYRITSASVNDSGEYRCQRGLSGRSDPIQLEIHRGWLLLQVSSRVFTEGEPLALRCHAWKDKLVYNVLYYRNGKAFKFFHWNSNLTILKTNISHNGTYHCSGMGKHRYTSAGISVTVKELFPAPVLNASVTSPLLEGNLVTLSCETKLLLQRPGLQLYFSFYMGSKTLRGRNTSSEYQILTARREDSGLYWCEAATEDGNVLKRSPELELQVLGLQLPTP

B1: eculizumab (antibody, human IgG2, kappa)
heavy: QVQLVQSGAEVKKPGASVKVSCKASGYIFSNYWIQWVRQAPGQGLEWMGEILPGSGSTEYTENFKDRVTMTRDTSTSTVYMELSSLRSEDTAVYYCARYFFGSSPNWYFDVWGQGTLVTVSSASTKGPSVFPLAPCSRSTSESTAALGCLVKDYFPEPVTVSWNSGALTSGVHTFPAVLQSSGLYSLSSVVTVPSSNFGTQTYTCNVDHKPSNTKVDKTVERKCCVECPPCPAPPVAGPSVFLFPPKPKDTLMISRTPEVTCVVVDVSQEDPEVQFNWYVDGVEVHNAKTKPREEQFNSTYRVVSVLTVLHQDWLNGKEYKCKVSNKGLPSSIEKTISKAKGQPREPQVYTLPPSQEEMTKNQVSLTCLVKGFYPSDIAVEWESNGQPENNYKTTPPVLDSDGSFFLYSRLTVDKSRWQEGNVFSCSVMHEALHNHYTQKSLSLSLGK
light: DIQMTQSPSSLSASVGDRVTITCGASENIYGALNWYQQKPGKAPKLLIYGATNLADGVPSRFSGSGSGTDFTLTISSLQPEDFATYYCQNVLNTPLTFGQGTKVEIKRTVAAPSVFIFPPSDEQLKSGTASVVCLLNNFYPREAKVQWKVDNALQSGNSQESVTEQDSKDSTYSLSSTLTLSKADYEKHKVYACEVTHQGLSSPVTKSFNRGEC
With B1, the Kd in experiment [1] stood at 3.49 µM; in experiment [2], 3.78 µM; in experiment [3], 6.78 µM.
